Where “and” joins values, the source holds several entries; their conditions need not be identical. Equal entries are not always repeated.
Assays:
[1] = test system: CD14 positive recurrent bladder cancer patient-derived xenograft (PDX); assay: Anti-CD14 IgG1/IgG4 with or without cisplatin, tumor treatment in PDX mice (tumor length, width, volume, tumor weight; Example 6); format: in vivo; settings: for Tumor Length / Tumor Width: IgG1 5 mg/kg i.v. (Ex. 1), PDX mice 1-6
Text: After removing the primary tumor tissue from the patient, the tissue was temporarily placed in a complete culture medium containing RPMI1640 (Gibco Roswell Park Memorial Institute 1640 Media)+PS (penicillin and streptomycin)+10% FBS (Fetal bovine serum). The tissue was then transported to a sterile operating room within an SPF-grade (Specific Pathogen Free) animal facility. The tumor tissue was cut to an appropriate size (5 millimeters (mm) in diameter). Severely immunodeficient NSG (NOD scid gamma mouse) mice were anesthetized using an isoflurane respirator. The tumor was transplanted subcutaneously into the right rib area through surgery. When the tumor volume reached 1 cm^3, it was passaged following the same procedure, and after expanding for three generations, the tumor became stable for use in formal experiments. During the experiment, passaging and expansion were performed as needed. When the tumor volume reached 100 mm^3, the mice were divided into groups according to the experimental requirements and treated with drugs.
The IgG4 tested is the original version of Atibuclimab.
Drug administration on the PDX mice was performed intravenously.

[2] = biological target: T1, recombinant human CD14 (B294801, histidine tagged) (Homo sapiens, UniProt P08571); assay: Biacore 8K kinetic and affinity test of humanized antibodies (Example 8); format: binding; settings: Biacore 8K, analyte B294801 0.78125-25 nM, capture 1 μg/mL
T1 construct: His; purchased Shanghai BaiYing Biotechnology Co., Ltd B294801 (Batch number 20200518A22)
T1 sequence (P08571 20-345): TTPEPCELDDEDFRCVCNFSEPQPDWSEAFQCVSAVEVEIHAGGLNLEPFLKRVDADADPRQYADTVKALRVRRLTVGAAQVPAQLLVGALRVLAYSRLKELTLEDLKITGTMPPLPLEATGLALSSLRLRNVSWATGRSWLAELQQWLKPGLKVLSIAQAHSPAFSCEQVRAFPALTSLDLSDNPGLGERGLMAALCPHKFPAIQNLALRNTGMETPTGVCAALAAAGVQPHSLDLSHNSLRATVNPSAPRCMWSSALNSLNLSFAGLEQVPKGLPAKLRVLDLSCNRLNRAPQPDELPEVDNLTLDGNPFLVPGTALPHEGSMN
Procedure: Experimental reagents and consumables included Protein A chip (Cytiva, 29127556). Main instruments and equipment included Biacore 8K (Cytiva), shaker (Taicang Huamei), ELISA system (Molecular Devices), centrifuge (Baiyang), ultrapure water system (Millipore), and thermostatic incubator (BLUE PARD).
The antigen used for the binding affinity measurements is B294801. This antigen is a recombinant human CD14 antigen that is histidine tagged and has a molecular weight of 36 kDa. B294801 was purchased from Shanghai BaiYing Biotechnology Co., Ltd (name: Recombinant Human CD14/His Protein; Batch number 20200518A22). D6DD3D001 is a mouse antibody, and D6DD3D002-D6DD3D0016 are humanized antibodies. The antibodies are recombinant, human (hFc Tag). Selected parameters of the experimental samples are shown in Table 8-1, with MW referring to molecular weight in kiloDaltons (kDa).
The Biacore 8K platform was used to test the kinetic and affinity properties of the antibody. The operation was carried out according to the system instructions and indications.
The equilibrium dissociation constant (KD) reflects the affinity of the antibody to the target, with a smaller value indicating a stronger affinity. KD (in units of molarity) is determined by the ratio of the dissociation rate constant (koff) and the association rate constant (kon), that is, KD=Koff/kon.
15 humanized antibodies (numbered D6DD3D002-D6DD3D0016) and 1 mouse antibody (number D6DD3D001) were tested. For the experiments, the analyte solution comprises the B294801 antigen with an analyte concentration of 0.78125 nM, 1.5625 nM, 3.125 nM, 6.25 nM, 12.5 nM, and 25 nM. The capture concentration was 1 μg/mL. In Table 8-3, the change factor is the ratio of the equilibrium dissociation constant KD of the humanized to mouse antibody, and reflects the change in affinity after humanization.

[3] = biological target: T2, human CD14 antigen (B294801, histidine tagged) (Homo sapiens, UniProt P08571); assay: Biacore 8K kinetic and affinity test of antibodies without PTM sites (Example 9); format: binding; settings: Biacore 8K, analyte B294801 0.1953125-25 nM, capture conc. 1 μg/mL
T2 construct: His; purchased Shanghai BaiYing Biotechnology Co., Ltd B294801 (Batch number 20200518A22)
T2 sequence (P08571 20-345): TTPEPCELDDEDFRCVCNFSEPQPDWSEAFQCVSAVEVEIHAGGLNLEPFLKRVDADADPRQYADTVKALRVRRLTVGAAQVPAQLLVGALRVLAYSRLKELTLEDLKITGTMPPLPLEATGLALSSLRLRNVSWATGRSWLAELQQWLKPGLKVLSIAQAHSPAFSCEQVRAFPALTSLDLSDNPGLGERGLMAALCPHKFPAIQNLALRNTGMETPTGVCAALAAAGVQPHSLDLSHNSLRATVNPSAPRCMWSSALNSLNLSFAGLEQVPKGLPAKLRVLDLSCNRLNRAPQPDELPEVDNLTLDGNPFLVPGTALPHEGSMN
Procedure: Experimental reagents and consumables included cell culture fluid, electroporation buffer, CHO cells, 1 mL electroporation cuvette, Protein A chip (Cytiva, 29127556), various sizes of shake flasks, and various sizes of pipettes. Main instruments and equipment included a shaker (Taicang Huamei), centrifuge (Baiyang), ultrapure water system (Millipore), constant temperature incubator (BLUE PARD), electroporator, water bath, Biacore 8K (Cytiva), and ELISA system (Molecular Devices).
The antigen used for the binding affinity measurements is B294801. This antigen is a human CD14 antigen that is histidine tagged. D6DD3D001 is a mouse antibody, and MPDDAD001-MPDDAD005 are humanized antibodies. The antibodies are recombinant, human (hFc Tag). Selected parameters of the experimental samples are shown in Table 9-1, with MW referring to molecular weight in kDa.
The Biacore 8K platform was used to test the kinetic and affinity properties of the antibody, operating according to system instructions and indications.
Results of Affinity Detection. The affinity of the six antibodies was measured at saturation concentration. For the experiments, the analyte solution comprises the B294801 antigen with an analyte concentration of 0.1953125 nM, 0.390625 nM, 0.78125 nM, 1.5625 nM, 3.125 nM, 6.25 nM, 12.5 nM, and 25 nM. Change factor is described above.

B1: D6DD3D001: mouse-derived anti-CD14 IgG1 antibody; VH SEQ ID NO: 1, VL SEQ ID NO: 3, heavy chain SEQ ID NO: 2, light chain SEQ ID NO: 4 (antibody)
heavy: DVQLQQSGPGLVKPSQSLSLTCTVTGYSITSDSAWNWIRQFPGNRLEWMGYISYSGSTSYNPSLKSRISITRDTSKNQFFLQLNSVTTEDTATYYCVRGLRFAYWGQGTLVTVSSPSVFLFPPKPKDTLMISRTPEVTCVVVDVSHEDPEVKFNWYVDGVEVHNAKTKPREEQYNSTYRVVSVLTVLHQDWLNGKEYKCKVSNKALPAPIEKTISKAKGQPREPQVYTLPPSREEMTKNQVSLTCLVKGFYPSDIAVEWESNGQPENNYKTTPPVLDSDGSFFLYSKLTVDKSRWQQGNVFSCSVMHEALHNHYTQKSLSLSPGK
light: DIVLTQSPASLAVSLGQRATISCRASESVDSYVNSFLHWYQQKPGQPPKLLIYRASNLQSGIPARFSGSGSRTDFTLTINPVEADDVATYYCQQSNEDPYTFGGGTKLEIKRTVAAPSVFIFPPSDEQLKSGTASVVCLLNNFYPREAKVQWKVDNALQSGNSQESVTEQDSKDSTYSLSSTLTLSKADYEKHKVYACEVTHQGLSSPVTKSFNRGEC
With B1 the “Tumor Length” value ([1]; Day 0, 5 mg/kg) was 5.49 mm and 6.47 mm and 6.35 mm and 7.09 mm and 6.67 mm and 6.45 mm, the “Tumor Width” value ([1]; Day 0, 5 mg/kg) was 4.68 mm and 5.9 mm and 5.17 mm and 4.77 mm and 5.25 mm and 5.24 mm and the “Tumor Length” value ([1]; Day 4, 5 mg/kg) was 7.07 mm and 6.57 mm and 5.62 mm and 7.08 mm and 6.02 mm and 6.24 mm. For the same molecule, the “Tumor Width” value ([1]; Day 4, 5 mg/kg) was 5.98 mm and 5.95 mm and 5.01 mm and 5.53 mm and 5.58 mm and 6.18 mm, the “Tumor Length” value ([1]; Day 7, 5 mg/kg) was 7.09 mm and 6.9 mm and 6.93 mm and 6.25 mm and 6.83 mm and 8.42 mm and the “Tumor Width” value ([1]; Day 7, 5 mg/kg) was 5.61 mm and 6.26 mm and 6.41 mm and 5.39 mm and 6.72 mm and 6.39 mm. For the same molecule, the “Tumor Length” value ([1]; Day 11, 5 mg/kg) was 7.21 mm and 8.38 mm and 8.42 mm and 8.88 mm and 7.93 mm and 6.52 mm, the “Tumor Width” value ([1]; Day 11, 5 mg/kg) was 5.85 mm and 6.91 mm and 7.5 mm and 7.03 mm and 6.5 mm and 5.39 mm and the “Tumor Length” value ([1]; Day 14, 5 mg/kg) was 8.71 mm and 8.88 mm and 8.53 mm and 8.28 mm and 9.34 mm and 8.3 mm. The “Tumor Width” value ([1]; Day 14, 5 mg/kg) was 7.05 mm and 6.51 mm and 7.95 mm and 7.99 mm and 8.34 mm and 8.05 mm, the “Tumor Length” value ([1]; Day 18, 5 mg/kg) was 8.97 mm and 8.58 mm and 10.62 mm and 9.13 mm and 10.97 mm and 10.6 mm and the “Tumor Width” value ([1]; Day 18, 5 mg/kg) was 8.41 mm and 8.21 mm and 9.09 mm and 8.09 mm and 8.03 mm and 8.83 mm. The “Tumor Length” value ([1]; Day 21, 5 mg/kg) was 10.32 mm and 9.85 mm and 10.71 mm and 10.99 mm and 9.04 mm and 9.86 mm, the “Tumor Width” value ([1]; Day 21, 5 mg/kg) was 9.94 mm and 9.85 mm and 8.59 mm and 8.23 mm and 8.97 mm and 9.35 mm and the “Tumor Length” value ([1]; Day 25, 5 mg/kg) was 10.94 mm and 11.6 mm and 9.44 mm and 10.91 mm and 11.63 mm and 11.67 mm. For the same molecule, the “Tumor Width” value ([1]; Day 25, 5 mg/kg) was 10.71 mm and 8.34 mm and 9.23 mm and 9.83 mm and 10.03 mm and 9.39 mm, the “Tumor Length” value ([1]; Day 28, 5 mg/kg) was 11.18 mm and 12.43 mm and 12.8 mm and 10.15 mm and 10.49 mm and the “Tumor Width” value ([1]; Day 28, 5 mg/kg) was 9.72 mm and 10.02 mm and 9.93 mm and 10.84 mm and 9.98 mm and 9.95 mm. The “Tumor weight after 28 days” value ([1]; IgG1 (5 mg/kg), Ex. 1, per mouse 1-6, 5 mg/kg) was 0.645 grams and 0.585 grams and 0.501 grams and 0.618 grams and 0.641 grams and 0.555 grams, the tumor suppression rate ([1]; single anti-CD14-IgG1 5 mg/kg (Ex. 1), after 28 days, compared to the control group) was “about 50%” and the “koff (1:1 binding)” value [2] was 0.000858 s⁻¹. For the same molecule, the “kon (1:1 binding)” value [2] was 1.77e+06 M⁻¹ s⁻¹, the Koff [3] was 0.00108 s⁻¹ and the “kon (1:1 binding)” value [3] was 1.25e+06 M⁻¹ s⁻¹.
